Publication doi:10.1101/767376, “Strategies to improve scFvs as crystallization chaperones suggested by analysis of a complex with the human PHD-bromodomain SP140” (bioRxiv, 2019)

Biological target: T1, SP140 PHD-bromodomain (construct SP140A-c055) (Homo sapiens, UniProt Q13342)
T1 construct: SP140, human, nuclear leukocyte-specific protein, amino acids 688-862 (PHD and bromodomain); Biotinylated recombinant SP140 was the target in the phage selection; Details are in supplementary methods S1; source: recombinant, purified
Assay: SPR; format and conditions in Supplementary Method S3 and Figure S1 (not shown)

T1 sequence (Q13342 688-862): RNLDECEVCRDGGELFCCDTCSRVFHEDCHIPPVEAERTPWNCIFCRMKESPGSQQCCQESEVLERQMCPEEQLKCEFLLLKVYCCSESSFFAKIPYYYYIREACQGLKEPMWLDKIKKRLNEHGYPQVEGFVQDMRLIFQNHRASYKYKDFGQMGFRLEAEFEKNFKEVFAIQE

B1: G-SP140-8 scFv (construct YYSP140A-c009) (scFv, V domains shown)
VH: EVQLLESGGGLVQPGGSLRLSCAASGFTFYGSGMGWVRQAPGKGLEWVSSIYSGSGSTYYADSVKGRFTISRDNSKNTLYLQMNSLRAEDTAVYYCARTSIYYYYMDYWGQGTLVTVSS
VL: DIQMTQSPSSLSASVGDRVTITCRASQSISSYLNWYQQKPGKAPKLLIYAASSLQSGVPSRFSGSGSGTDFTLTISSLQPEDFATYYCQQSSSLFTFGQGTKLEIK
notes: scFv (VH and VL joined by a linker) selected by phage display from the human synthetic library SciLifeLib; see Supplementary Method S3; not shown: MBP, N-terminal, cleaved; His6, N-terminal, cleaved
With B1 the Kd was ~6 nM.
